Target: T1, EloBC (elongin B - elongin C heterodimer), Q15370
T1 chain 1: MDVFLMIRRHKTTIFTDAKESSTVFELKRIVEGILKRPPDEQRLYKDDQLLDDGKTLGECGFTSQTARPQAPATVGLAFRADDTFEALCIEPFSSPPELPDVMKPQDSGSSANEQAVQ
T1 chain 2: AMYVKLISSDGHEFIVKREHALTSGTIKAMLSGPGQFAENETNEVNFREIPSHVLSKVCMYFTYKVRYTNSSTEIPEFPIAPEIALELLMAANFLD
Assay: ITC

HNKVGSLQYLALAAL (domain or fragment, modifications not checked) [Vif BC-box protein]
Kd: 2200 nM

Reference: paper PMC2880568
